The values below come from publication PMC3355305, “Localized Dimerization and Nucleoid Binding Drive Gradient Formation by the Bacterial Cell Division Inhibitor MipZ” (Molecular Cell, 2012).

One assay relates to C. crescentus cells. In words: FRAP analysis of MipZ-YFP mobility. Type of assay: cell-based, Caulobacter crescentus. From the text:
Due to their association with chromosomal DNA, MipZ dimers should display slower diffusion rates than monomers. To test this hypothesis, we monitored the mobility of wild-type and mutant MipZ-YFP fusions using fluorescence recovery after photobleaching (FRAP) analysis. […] Concurrent with the reappearance of fluorescence at the bleached pole, the intensity of the unbleached focus decreased, while the total integrated fluorescence remained constant within the cell.
Figure 5 FRAP Analysis of MipZ Diffusion (A and C) FRAP experiments on cells producing a wild-type MipZ-YFP fusion (A) or a MipZ-D42A fusion (C). Cells of strain MT177 (WT) or MT197 (D42A) were shifted from M2GN to M2G medium containing 0.3% xylose and cultivated for another 4 hr to deplete wild-type MipZ and synthesize the indicated fusion protein instead. Single polar MipZ-YFP foci were photo-bleached (white circles), and recovery was followed by fluorescence microscopy (scale bars represent 2 μm). (B, D, and E) Quantification of the recovery rate in cells producing YFP fusions to wild-type MipZ (MT177) (B), MipZ-D42A (MT197) (D), and MipZ-G14V (MT178) (E). FRAP experiments were performed as described in (A). The graphs show the average relative integrated intensities of the bleached region, an unbleached region of equal size at the opposite pole, and the remaining area of the cell plotted as a function of time. The recovery half-times (t1/2), as determined by fitting of the data to single-exponential functions (red lines), are given on top of the graphs. […] (F) Quantification of the recovery rate of MipZ-YFP in cells depleted of ParB. Strain MT148 was grown in M2G medium for 15 hr and analyzed as described in (B), (D), and (E). […] The recovery half-time measured before depletion of ParB was 11.8 s (±1.2 s; n = 34) (data not shown). See also Figure S6. […] It is uncertain whether they count as substance results. / All panels: the lowered sign after t is very small and is read as ½.
Figure S6. Fluorescence-recovery-after-photobleaching analysis of MipZ mobility, Related to Figure 5.
(A) Representative images of FRAP experiments on cells producing mutant MipZ-YFP fusions. Cells of strains DK2 (K13A), MT178 (G14V) and MT179 (K18Q), which express wild-type mipZ under the control of the ammonium-repressible PnrtX promoter and the indicated mipZ-eyfp allele under the control of the xylose-inducible Pxyl promoter, were shifted from M2GN to M2G medium containing 0.3% xylose and cultivated for another 4 h to deplete wild-type MipZ and synthesize the fusion protein instead. Single polar regions were photo-bleached, and recovery was followed by fluorescence microscopy (bars: 2 µm). The bleached regions are highlighted by circles.
(B) Cells of strain MT177 (ΔmipZ PnrtX::mipZ Pxyl::mipZ-eyfp) were grown as described in (A). Chloramphenicol (20 µg/ml) was added to the growing culture 25 min prior to harvest as well as to the agarose pads used for the FRAP experiments. Fitting of the data to a single exponential equation yielded a recovery half-time of 12.4 s (± 0.5 s).
(C) Cells of strain MT97 (mipZ-eyfp) were grown in M2G medium and subjected to FRAP analysis. The fitted curve corresponds to a recovery half-time of 12.0 s (± 1.2 s).
(D and E) Cells of strains (D) DK2 (ΔmipZ PnrtX::mipZ Pxyl::mipZK13A-eyfp) and (E) MT179 (ΔmipZ PnrtX::mipZ Pxyl::mipZK18Q-eyfp) were grown as described in (A) and subjected to FRAP analysis. […]

The target of the next assay is ParB. Also noted: method as in Thanbichler and Shapiro, 2006. Conditions: apo-MipZ; ref Thanbichler and Shapiro, 2006; cited from earlier work.

B1: MipZ: P loop ATPase and cell division inhibitor of Caulobacter crescentus; hexahistidine-tagged in vitro, YFP fusion in FRAP (protein)
chain: MAETRVIVVGNEKGGAGKSTIAVHLVTALLYGGAKVAVIDLDLRQRTSARFFENRRAWLDNKKIELPEPLALNLSDNDVALAERPEEEQVAGFEAAFARAMAECDFILIDTPGGDSAITRMAHGRADLVVTPMNDSFVDFDMLGTVDPVTLELTKPSLYSLTVWEGRKQRALSGQRQAMDWVVLRNRLATTEARNRKRLEDRLNALAKRVGFRIGPGLRDRVIYRELFPFGLTIADLSPQVRPVPVSLQHLAARQELRALMHSLGLSAYSGETMLAAQ
modifications: left off: His6, end not stated, state not stated
notes: hexahistidine-tagged in vitro, YFP fusion in FRAP
The term Kd denotes the constant that tells how readily two partners part at equilibrium. In the case of B1, the “recovery half-time (t1/2)” value with C. crescentus cells (MipZ-YFP in cells depleted of ParB (strain MT148)) is recorded as 3.2 s; in the assay with C. crescentus cells (YFP fusion, xylose-induced, cells depleted of wild-type MipZ, polar region bleached) it was 10.7 s. Also, the recovery half-time in the assay with C. crescentus cells (strain MT97 (mipZ-eyfp), M2G medium, not inducible promoter) is 12.0 s; in the assay with C. crescentus cells (strain MT148 before depletion of ParB) it was 11.8 s; in the assay on C. crescentus cells (strain MT177, chloramphenicol 20 µg/ml), 12.4 s. At ParB, the Kd is roughly 2000 nM.
